Laboratory results: patent EP4737480A1 (Japan Science and Technology Agency, dated 2026)

Target: recombinant HER2 molecule (UniProt P04626 23-652)
Experiment: BLI (Octet N1), HER2 on streptavidin biosensor

Kd: 123 nM
koff: 0.00258 s⁻¹
kon: 20900 M⁻¹ s⁻¹
B1: trastuzumab light chain P95ΔP96Δ (other)
light: DIQMTQSPSSLSASVGDRVTITCRASQDVNTAVAWYQQKPGKAPKLLIYSASFLYSGVPSRFSGSRSGTDFTLTISSLQPEDFATYYCQQHYTTTFGQGTKVEIKRTVAAPSVFIFPPSDEQLKSGTASVVCLLNNFYPREAKVQWKVDNALQSGNSQESVTEQDSKDSTYSLSSTLTLSKADYEKHKVYACEVTHQGLSSPVTKSFNRGEC
notes: also called Tmb-L-PPΔ; Tmb-L-PΔΔ
